Laboratory results as given in article PMC6403371.

Assays:
cHSP27 C137S (human) [1] = biological target: cHSP27 C137S (human) (UniProt P04792); test: NMR titration; intensities of the G116 monomer and dimer resonances against protein concentration, pH 7, 1 bar; dimer to monomers
cHSP27 C137S (human) [2] = biological target: cHSP27 C137S (human) (UniProt P04792); test: high-pressure NMR (1H-15N HSQC); 200 μM [U-15N]-C137S in baroresistant buffer (100 mM Tris-HCl, 100 mM phosphate) pH 7, 25 °C, 14.1 T, 1 to 2500 bar; three-state model (dimer, monomer, unfolded); similar pressure titrations on oxidised cHSP27
cHSP27 C137S (human) [3] = biological target: cHSP27 C137S (human) (UniProt P04792); test: NMR (1H-15N HSQC, G116 monomer and dimer peak intensities) against pH; [U-15N]-C137S at 250 μM in NMR buffer at pH 7, 25 °C, and separate samples at pH 6.5, 6.0 and 5.0, 1 bar; similar pH titrations on oxidised cHSP27; the rows are for pH 5 / low pH; dimer to monomers
cHSP27 C137S (human) [4] = biological target: cHSP27 C137S (human) (UniProt P04792); test: 15N CPMG relaxation dispersion NMR; cHSP27 (1 mM, reduced with 5 mM BME, 14.1 T only) or C137S (1 mM and 0.3 mM; 25, 30, 35 °C; 11.7 and 14.1 T) in NMR buffer pH 7; global two-state fit; dimer to monomers
[5] = biological target: cHSP27(H124K/C137S) (human) (UniProt P04792); test: NMR titration; intensities of the G116 monomer and dimer resonances against protein concentration, pH 7, 1 bar; dimer to monomers

| Kd (cHSP27 C137S (human) [1]) [nM] | fold increase of Kd at 1600 bar (against 1 bar) (cHSP27 C137S (human) [2]) [fold] | Kd (cHSP27 C137S (human) [3]) [mM] | Kd (cHSP27 C137S (human) [4]) [nM] | population of the monomer at 1 mM (cHSP27 C137S (human) [4]) [%] | Kd [5] [mM] | Substance |
| --- | --- | --- | --- | --- | --- | --- |
| 700 | 10 | 5 | 500 | 1.5 | – | cHSP27 C137S (from UniProt P04792 84-171) (domain or fragment) |
| – | – | – | – | – | 1.1 | cHSP27(H124K/C137S) (from UniProt P04792 84-171) (domain or fragment) |
